Assay results as given in publication PMC2877795, “Laminin chain assembly is regulated by specific coiled-coil interactions” (Journal of Structural Biology, 2010).

Assays:
Settings in all cases: both partners purified
[1] = molecular target: T1, β1γ2 complex of the recombinant mouse laminin coiled-coil fragments (mouse, UniProt P02469 1561-1786; Q61092 949-1191); assay: AUC; sedimentation equilibrium and velocity; 5 mM sodium phosphate, 150 mM NaCl, pH 7.0 (methods) or 7.4 (Table 3); 0.1-0.5 mg/ml
T1 construct: two residues (GlySer) left from the protease recognition site after thrombin cleavage; laminin β1 chain, mouse, residues 1561-1786 of the native chain; as m6; laminin γ2 chain, mouse, residues 949-1191 of the native chain; as m10; alone a heterotetramer by AUC (most likely two β1 and two γ2 chains); one chain of each in the trimer with α3; in the αβγ tests all three chains were mixed; also called …
T1 sequence 1: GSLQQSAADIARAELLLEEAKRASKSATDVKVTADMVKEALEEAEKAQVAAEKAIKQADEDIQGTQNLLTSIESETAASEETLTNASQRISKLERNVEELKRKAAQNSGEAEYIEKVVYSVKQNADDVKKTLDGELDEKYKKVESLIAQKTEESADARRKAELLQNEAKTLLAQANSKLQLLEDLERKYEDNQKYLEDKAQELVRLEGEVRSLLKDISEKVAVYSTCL
T1 sequence 2: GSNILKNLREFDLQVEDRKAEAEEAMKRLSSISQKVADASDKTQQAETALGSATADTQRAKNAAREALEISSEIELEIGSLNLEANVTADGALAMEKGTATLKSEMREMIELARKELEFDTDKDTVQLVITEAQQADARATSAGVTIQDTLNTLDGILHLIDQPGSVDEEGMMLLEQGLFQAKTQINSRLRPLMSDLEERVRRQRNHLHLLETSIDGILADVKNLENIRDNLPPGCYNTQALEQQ

[2] = molecular target: T2, β1γ1 complex of the recombinant mouse laminin coiled-coil fragments (mouse, UniProt P02469 1561-1786; P02468 1362-1607); assay: as above
T2 construct: two residues (GlySer) left from the protease recognition site after thrombin cleavage; laminin β1 chain, mouse, residues 1561-1786 of the native chain; as m6; laminin γ1 chain, mouse, residues 1362-1607 of the native chain; as m9; heterodimer by AUC; in the αβγ tests all three chains were mixed, the βγ complex was not isolated beforehand; source: mixture of the purified E. coli fragments; not …
T2 sequence 1: T1 sequence 1
T2 sequence 2: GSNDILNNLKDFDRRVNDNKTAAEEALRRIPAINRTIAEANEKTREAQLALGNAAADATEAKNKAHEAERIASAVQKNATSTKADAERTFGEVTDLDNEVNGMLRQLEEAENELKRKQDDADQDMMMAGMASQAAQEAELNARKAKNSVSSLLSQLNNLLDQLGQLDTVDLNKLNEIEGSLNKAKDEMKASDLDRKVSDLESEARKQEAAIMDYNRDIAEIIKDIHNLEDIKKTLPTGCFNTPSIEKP

[3] = molecular target: T3, β2γ1 complex of the recombinant mouse laminin coiled-coil fragments (mouse, UniProt Q61292 1575-1799; P02468 1362-1607); assay: native gel or EMSA; mixtures of one α, one β and one γ chain fragment; 10% non-denaturing PAGE (acid gels for basic complexes); mixtures reduced, heated to 70 °C for 5 min and cooled; run overnight at 50 V, room temperature, no cooling; Coomassie; bands confirmed by in-gel trypsin digestion and mass spectrometry
T3 construct: two residues (GlySer) left from the protease recognition site after thrombin cleavage; laminin β2 chain, mouse, residues 1575-1799 of the native chain; as m7; laminin γ1 chain, mouse, residues 1362-1607 of the native chain; as m9; in the αβγ tests all three chains were mixed, the βγ complex was not isolated beforehand; source: mixture of the purified E. coli fragments; not shown: 6xHis, …
T3 sequence 1: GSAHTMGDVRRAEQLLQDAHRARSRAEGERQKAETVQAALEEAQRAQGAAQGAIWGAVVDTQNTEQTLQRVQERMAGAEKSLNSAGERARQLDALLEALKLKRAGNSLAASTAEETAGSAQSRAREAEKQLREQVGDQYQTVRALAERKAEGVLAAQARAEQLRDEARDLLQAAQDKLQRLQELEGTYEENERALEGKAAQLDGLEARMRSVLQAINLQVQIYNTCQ
T3 sequence 2: T2 sequence 2

[4] = molecular target: T4, β3γ2 complex of the recombinant mouse laminin coiled-coil fragments (mouse, UniProt Q61087 945-1168; Q61092 949-1191); assay: as above
T4 construct: two residues (GlySer) left from the protease recognition site after thrombin cleavage; laminin β3 chain, mouse, residues 945-1168 of the native chain; as m8; laminin γ2 chain, mouse, residues 949-1191 of the native chain; as m10; in the αβγ tests all three chains were mixed, the βγ complex was not isolated beforehand; source: mixture of the purified E. coli fragments; not shown: 6xHis, …
T4 sequence 1: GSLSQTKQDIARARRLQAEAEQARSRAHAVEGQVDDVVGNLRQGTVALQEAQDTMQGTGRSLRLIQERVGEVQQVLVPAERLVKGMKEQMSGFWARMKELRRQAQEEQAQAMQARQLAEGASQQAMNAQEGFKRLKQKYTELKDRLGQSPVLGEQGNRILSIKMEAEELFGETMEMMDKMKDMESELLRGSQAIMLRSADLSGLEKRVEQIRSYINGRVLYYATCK
T4 sequence 2: T1 sequence 2

[5] = molecular target: T5, recombinant mouse laminin β1 chain C-terminal coiled-coil fragment (1561–1786) (mouse, UniProt P02469 1561-1786); assay: AUC; sedimentation equilibrium and velocity; 5 mM sodium phosphate, 150 mM NaCl, pH 7.0 (methods) or 7.4 (Table 3); 0.1-0.5 mg/ml
T5 construct: two residues (GlySer) left from the protease recognition site after thrombin cleavage; laminin β1 chain, mouse, C-terminal coiled-coil fragment, residues 1561-1786 of the native chain (226 residues); source: E. coli JM109(DE3), purified (Ni2+-Sepharose, denaturing, 8 M urea), 6xHis tag removed by thrombin; not shown: 6xHis, N-terminal, cleaved
T5 sequence: T1 sequence 1

[6] = molecular target: T5, recombinant mouse laminin β1 chain …; assay: as above; remark: listed apart in the source

B1: recombinant mouse laminin α3 chain C-terminal coiled-coil fragment (2176–2397) (domain or fragment)
chain: GSYENILNAIRAAEDAASKATSASKSAFQTVIKEDLPKRAKTLSSDSEELLNEAKMTQKRLQQVSPALNSLQQTLKTVSVQKDLLDANLTVARDDLHGIQRGDIDSVVIGAKSMVREANGITSEVLDGLNPIQTDLGRIKDSYESARREDFSKALVDANNSVKKLTRKLPDLFIKIESINQQLLPLGNISDNVDRIRELIQQARDAANKVAIPMRFNGKSGVEV
notes: two residues (GlySer) left from the protease recognition site after thrombin cleavage; laminin α3 chain, mouse, C-terminal coiled-coil fragment, residues 2176-2397 of the native chain (222 residues); the printed numbers fit the long (α3B) form; source: E. coli JM109(DE3), purified (Ni2+-Sepharose, denaturing, 8 M urea), 6xHis tag removed by thrombin; not shown: 6xHis, N-terminal, cleaved; pPEP-T …
[1]
  stoichiometry N: 1
[2]
  stoichiometry N: 1
[3]
  binding result: binds
[4]
  binding result: binds

B2: recombinant mouse laminin γ1 chain C-terminal coiled-coil fragment (1362–1607) (domain or fragment)
chain: T2 sequence 2
notes: two residues (GlySer) left from the protease recognition site after thrombin cleavage; laminin γ1 chain, mouse, C-terminal coiled-coil fragment, residues 1362-1607 of the native chain (246 residues); source: E. coli JM109(DE3), purified (Ni2+-Sepharose, denaturing, 8 M urea), 6xHis tag removed by thrombin; not shown: 6xHis, N-terminal, cleaved; pPEP-T leader (short C-terminal fragment of the …)
[5]
  stoichiometry N: 1

B3: recombinant mouse laminin γ2 chain C-terminal coiled-coil fragment (949–1191) (domain or fragment)
chain: T1 sequence 2
notes: two residues (GlySer) left from the protease recognition site after thrombin cleavage; laminin γ2 chain, mouse, C-terminal coiled-coil fragment, residues 949-1191 of the native chain (243 residues); source: E. coli JM109(DE3), purified (Ni2+-Sepharose, denaturing, 8 M urea), 6xHis tag removed by thrombin; not shown: 6xHis, N-terminal, cleaved; pPEP-T leader (short C-terminal fragment of the …)
[6]
  stoichiometry N: 1 γ2 per β1 (2:2)
